Experimental data: article doi:10.1101/2021.01.20.427433, “Microarray screening reveals a non-conventional SUMO-binding mode linked to DNA repair by non-homologous end-joining” (bioRxiv, 2021)

Molecular target: T1, XLF-6xHis (human, UniProt Q9H9Q4 1-299)
T1 construct: XLF, human, amplified from pGEX2TKP-XLF; source: E. coli (pHAT5), purified (His-trap, HiTrap Q)
Assay: BLI; XLF-6xHis and XRCC4^1-164 wildtype or mutants
Conditions: both partners purified

T1 sequence (Q9H9Q4 whole entry): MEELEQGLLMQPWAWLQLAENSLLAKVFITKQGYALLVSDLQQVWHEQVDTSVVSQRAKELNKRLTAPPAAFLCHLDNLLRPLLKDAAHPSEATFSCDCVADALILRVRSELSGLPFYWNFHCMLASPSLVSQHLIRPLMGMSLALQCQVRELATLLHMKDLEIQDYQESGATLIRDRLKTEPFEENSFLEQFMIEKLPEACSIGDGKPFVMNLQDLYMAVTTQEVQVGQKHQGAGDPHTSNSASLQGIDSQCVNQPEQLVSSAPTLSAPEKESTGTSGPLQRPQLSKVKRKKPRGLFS

B1: 6xHis-XRCC4^1-164 (C-to-A), wildtype for the SIMs (domain or fragment, human, UniProt Q13426 1-164, looked up)
chain: MERKISRIHLVSEPSITHFLQVSWEKTLESGFVITLTDGHSAWTGTVSESEISQEADDMAMEKGKYVGELRKALLSGAGPADVYTFNFSKESAYFFFEKNLKDVSFRLGSFNLEKVENPAEVIRELIAYALDTIAENQAKNEHLQKENERLLRDWNDVQGRFEK
modifications: 15N-labelled where it is the observed protein in NMR
notes: The three cysteines are printed for the 1-180 construct amplified from this vector; also called XRCC4 head domain; source: E. coli BL21-CodonPlus (DE3)-RIL (pET-28a), purified; isotope-labelled in minimal medium for NMR
binding result: binds
